Reference: the DeepSol protein solubility set

Assay: soluble on expression in E. coli; label from the status in PepcDB or PDB records

## MGSDKIHHHHHHMADKKRLDQLVLERGLVESREKAKVLILAGKVLVNGERVTKASKLVPEDANVELLEEPKYVSRGGYKLESAFESFKIDVSGKVACDIGASTGGFTDFLLQRGAKKVYAVDVGYGQLHWKLRNDPRVVVMEKVNARYLNPDDLGEKVDVVTCDVSFISLKKIIPAISRILKNIGDAVLLVKPQFEAPRKFVKKGIVKDPGVHLEVLEEIRKSLIENGFVVKGCCFSKIKGTEGNIEYFFWVKKEGENAEIDLRKIVEEAWRFFGERER
  soluble on expression in E. coli: not soluble

## MDILKLSDFIGNTLIVSLTEDRILVGSLVAVDAQMNLLLDHVEERMGSSSRMMGLVSVPRRSVKTIMIDKPVLQELTANKVELMANIV
  soluble on expression in E. coli: not soluble

## MGSDKIHHHHHHMKQLGLGLNLSTKKTRKREFLEDMERVVPWAVLVQIVAPHYPKAKTGRPPFGIETMLRIHYLQQWFGLSDPAMEEALHDVPLYREFAKLDSVTARLPDETTILRFRHLLERHNLAVDMLRVVNDLLQHKGLMMRTGTAVDATLISAPSSTKNAEGERDPEMKQTRKGNNWYFGMKAHIGVDAQSGLVHTVATTGANVNDLNMAGALLHGDEEAAFGDAGYQGVHKRPEAKGPTWHVAMRPGLRRKLNPFIEPDFIAERIEKMKASIRAKVEHPFRVIKRQFGFTKVRYRGLKKNTAQIVTLFALSNLWMARRQLIGARG
  soluble on expression in E. coli: not soluble

## YSFIGSPVFSREFNISEMREYYLSFFEARGHTRINRYPVVARWRDDIYLTIASIADFQPFVTSGQVPPPANPLTISQPCIRLNDLDSVGRSGRHLTNFEMMAHHAFNRRDNEIYWKEHTLELCDELLNSLKVNPLAVTYKEEPWAGGGNAGPCVEVIVHGLELATLVFMDLKTDKKGDIEIKGETYSKMDNYIVDTGYGLERFVWASRGSPTIYDALFPGIVNELMGLAGIEHELNDSEYANI
  soluble on expression in E. coli: not soluble

## MPLPMNSGEKVKAVGRSYNPGRPLCLEDRKKIVRLYEEGCRVSHIARLIGVTHSCVSKIMSRYRRTGSVQPRSFRATENQENDNATWQQQQLKQQQKKEKPLPFSIERF
  soluble on expression in E. coli: soluble

## MGSDKIHHHHHHIETYNPAEVTFPENVAKVLIVNNAVPQPEDAGYEYTLQGERQDTCKAKADSALFDACRTLGEAIVEASYFNDVLLYHDAVRKDNQAFLDTKLTQGQVASLCDETGADAVISIDRLLFDMKKSVGTLGEGYVMGMIDVQMAGVIRSYVPDREAPLATVHMKDSIYWAESADYMPILDKVLPSPENALRGAGKYFGAKVYANFVPHWEKETRWYFTGMGSRWKEASAYAANEKWDMAEDRWSGLYRGTENWKSRAKAASNLALCHEMRGALKEAYEWAHKSYDLFKRNNGDNDKSTKLLELYVQALAERIRSDKKLNVQFGED
  soluble on expression in E. coli: not soluble

## GAVDLNKENRDPKYVESIVNRSQKIVDKLGLTDAKVAEDVCNVIANRYFELNDIYEIRDAKVKAVKESGLTGDAKNEALKAAENEKDAALYRSHFAFPASLSLFLNEEQIEAVKDGMTYGVVKVTYEATLDMIPSLKEEEKVQIYAWLVEAREFAMDAENSNKKHAAFGKYKGRINNYLAKRGYNLTKEREEWAKRVKARGGTL
  soluble on expression in E. coli: soluble

## MEKRNIQVTRHFVCADQLQQISETVIACLGQEDLITISGGLGPISDDKTRDAVAKAVRQPLFHHEDVWQTIKGQLGWLGSTPDSNNARQALFPETAKVLDNPTGTAPGFYLSCGESILVILTGSLTQAFALLENYLEHGEKKYSSVSRARYAWILIGIDESAIAHWVDCQLANELFERHFYGKALMFSYNWLASHQRFWLSI
  soluble on expression in E. coli: not soluble

## MAHVVILGAGTGGMPAAYEMKEALGSGHEVTLISANDYFQFVPSNPWVGVGWKERDDIAFPIRHYVERKGIHFIAQSAEQIDAEAQNITLADGNTVHYDYLMIATGPKLAFENVPGSDPHEGPVQSICTVDHAERAFAEYQALLREPGPIVIGAMAGASAFGPAYEYAMIVASDLKKRGMRDKIPSFTFITSEPYIGHLGIQGVGDSKGILTKGLKEEGIEAYTNCKVTKVEDNKMYVTQVDEKGETIKEMVLPVKFGMMIPAFKGVPAVAGVEGLCNPGGFVLVDEHQRSKKYANIFAAGIAIAIPPVETTPVPTGAPKTGYMIESMVSAAVHNIKADLEGRKGEQTMGTWNAVCFADMGDRGAAFIALPQLKPRKVDVFAYGRWVHLAKVAFEKYFIRKMKMGVSEPFYEKVLFKMMGITRLKEEDTHRKAS
  soluble on expression in E. coli: soluble

## MSLRYLLGIDVGTSGTKTALFDECGNTIKTSTHEYELFQPQVGWAEQNPENWWTACVKGIREVIEKSKIDPLDIKGIGISGQMHGLVLIDKEYKVIRNSIIWCDQRTEKECTQITDTIGKEKLIRITGNPALTGFTLSKLLWVRNNEPDNYKRIYKVLLPKDYIRFKLTGVFAAEVSDASGTQMLDINTRNWSEELLDDLRIDKNILPDVYESVVVSGCVIEKASKETKLAVNTPVVGGAGDQAAGAIGNGIVREGLISTVIGTSGVVFAATDTPRFDSKGRVHTLCHAVPNKWHIMGVTQGAGLSLNWFKRTFCAKEILESKEAGINIYDLLTEKASQSKPGSNGIIYLPYLMGERTPHIDPNVKGAFLGISLINNHNDFVRSILEGVGFSLKNCLDIIENMKVNIEEIRVSGGGAESSIWRQILSDIFNYELTTVKASEGPALGVAILAGVGAGIYNSVEEACDKIVKGNEKVMPNANLIEVYSKVYEVYNSAYPKIKDEGHHHHHH
  soluble on expression in E. coli: soluble

## MGSDKIHHHHHHMTTPANAVDTALITRRSIRAFLPTPVPRADIEAILEAASRAPSGTNTQPWKVYVVTGESLARLSRALLAAYDDPQRDALYQEEYPYYPHQWVSPYIDRRRKIGWDLYGLLGITKGDKARMHEQHAQNYRFFGAPVGLFFTIDRVMERGSWLDYGMFLQAIMTAARGRGLDTCPQAAFTQFHRVIAEHLGLPPEEQLVCGMSLGFADEDALVNTLRTEREPVERFTRFLD
  soluble on expression in E. coli: not soluble

## MTTGGEDSRRTLSPGTMIVIVGPSGAGKDTLMDYAAAQLSGRPGFHFTRRVITRSCDAGGENHDAVSMHEFNQLEDAGAFAVSWQAHGLKYGIPAAVYRHLEAGDVVIANGSRSALPHFGTAFSRLKVVNIVARPDVLARRLEQRGRESRDDILRRLERSSLAVAGDFDVTTVDNSGAIEDAGKTIMQVLQQSAGSSQP
  soluble on expression in E. coli: not soluble

## MGSDKIHHHHHHGSITVILGPMFSGKTTELLRLHDRQIIAKRTCVLVKYAGDTRYDADLVATHSKMTGQGRTVKAHRLSEVQSQIFNDEVQVVSIDEGQFFEDLAETCEELAQRGKVVCVAALNGTFERKPFPQISLLLPYANEIKQVTAVCVECGSQANFSFRSTLDKKVEVIGGSDTYTALCRECY
  soluble on expression in E. coli: not soluble

## SLHNGGLMAGWHLDTKMAQDIVARTMRIIDTNINVMDARGRIIGSGDRERIGELHEGALLVLSQGRVVDIDDAVARHLHGVRQGINLPLRLEGEIVGVIGLTGEPENLRKYGELVCMTAEMMLEQSRLMHLLAQDSRLREELVMNLIQAEENTPALTEWAQRLGIDLNQPRVVAIVEVDSGQLGVDSAMAELQQLQNALTTPERNNLVAIVSLTEMVVLKPALNSFGRWDAEDHRKRVEQLITRMKEYGQLRFRVSLGNYFTGPGSIARSYRTAKTTMVVGKQRMPESRCYFYQDLMLPVLLDSLRGDWQANELARPLARLKTMDNNGLLRRTLAAWFRHNVQPLATSKALFIHRNTLEYRLNRISELTGLDLGNFDDRLLLYVALQLDEER
  soluble on expression in E. coli: soluble

## MGLFQIKPDIHYGANSLDILRTLEMEKVFLVTDENMVKLKVINKVTNILKSRGIEAKVYSDVKPDPTDEEIIKGMLELSAHDPDCIIALGGGSPIDACKSMIYFTNQIKRAMGQNKKPKFIAIPTTSGTGSEVTSYAVVTTKDKKIPLSDSEMLPDIAILNPEFIKTLSPSIIADTGMDVLTHAIEAYVSKSRNLFTNTFAIGAIKTVFADLVSNFENPQLEKERINLQIASCMAGVAFSNAGLGINHSIAHSLGARFHKPHGRLNAVIMSEVIQFNARNKNAAKYYREIVEALGFSPKEDVEGVEILAKAIKMRAAKMGIPNSLSELGIPKEQYFDEMEGIIDQIENDMCTGENPRRFSRIEMKQLLTDLY
  soluble on expression in E. coli: not soluble

## MAHHHHHHMRVTHHNNNNERSADRPPPSPHPHSQYYRQRYSLFRKTHRHAALTCSTRSSSSSPAVQQLRVIHFFHSLRHATATQYSHTCSMRCILFSSLYLWRHRKVLQPAASWCWKKYGAATVRVSVWLYSRFNSSSTNGLAAAIPAGSFSSSPQNRGRLTGPSNGVTPCPMRSCAPPSHVPLRSRRRTQHPHAIAGKIGPST
  soluble on expression in E. coli: soluble
